Patent US9695426B2, “Biofuel production by recombinant microorganisms” (The Regents of the University of California, priority 2007, dated 2017)

B1: Kivd: 2-keto-acid decarboxylase Kivd from Lactococcus lactis (protein, listed as Lactococcus lactis)
chain: MYTVGDYLLDRLHELGIEEIFGVPGDYNLQFLDQIISRKDMKWVGNANELNASYMADGYARTKKAAAFLTTFGVGELSAVNGLAGSYAENLPVVEIVGSPTSKVQNEGKFVHHTLADGDFKHFMKMHEPVTAARTLLTAENATVEIDRVLSALLKERKPVYINLPVDVAAAKAEKPSLPLKKENSTSNTSDQEILNKIQESLKNAKKPIVITGHEIISFGLEKTVSQFISKTKLPITTLNFGKSSVDEALPSFLGIYNGKLSEPNLKEFVESADFILMLGVKLTDSSTGAFTHHLNENKMISLNIDEGKIFNESIQNFDFESLISSLLDLSEIEYKGKYIDKKQEDFVPSNALLSQDRLWQAVENLTQSNETIVAEQGTSFFGASSIFLKPKSHFIGQPLWGSIGYTFPAALGSQIADKESRHLLFIGDGSLQLTVQELGLAIREKINPICFIINNDGYTVEREIHGPNQSYNDIPMWNYSKLPESFGATEERVVSKIVRTENEFVSVMKEAQADPNRMYWIELILAKEDAPKVLKKMGKLFAEQNKS
B2: PDC6: 2-keto-acid decarboxylase Pdc6 from S. cerevisiae (protein, listed as Saccharomyces cerevisiae)
chain: MSEITLGKYLFERLKQVNVNTIFGLPGDFNLSLLDKIYEVDGLRWAGNANELNAAYAADGYARIKGLSVLVTTFGVGELSALNGIAGSYAEHVGVLHVVGVPSISAQAKQLLLHHTLGNGDFTVFHRMSANISETTSMITDIATAPSEIDRLIRTTFITQRPSYLGLPANLVDLKVPGSLLEKPIDLSLKPNDPEAEKEVIDTVLELIQNSKNPVILSDACASRHNVKKETQKLIDLTQFPAFVTPLGKGSIDEQHPRYGGVYVGTLSKQDVKQAVESADLILSVGALLSDFNTGSFSYSYKTKNVVEFHSDYVKVKNATFLGVQMKFALQNLLKVIPDVVKGYKSVPVPTKTPANKGVPASTPLKQEWLWNELSKFLQEGDVIISETGTSAFGINQTIFPKDAYGISQVLWGSIGFTTGATLGAAFAAEEIDPNKRVILFIGDGSLQLTVQEISTMIRWGLKPYLFVLNNDGYTIEKLIHGPHAEYNEIQTWDHLALLPAFGAKKYENHKIATTGEWDALTTDSEFQKNSVIRLIELKLPVFDAPESLIKQAQLTAATNAKQ
modifications: CDS (1)..(1692)
notes: 2-keto-acid decarboxylase Pdc6 from S. cerevisiae
B3: ARO10: 2-keto-acid decarboxylase Aro10 from S. cerevisiae (protein, listed as Saccharomyces cerevisiae)
chain: MAPVTIEKFVNQEERHLVSNRSATIPFGEYIFKRLLSIDTKSVFGVPGDFNLSLLEYLYSPSVESAGLRWVGTCNELNAAYAADGYSRYSNKIGCLITTYGVGELSALNGIAGSFAENVKVLHIVGVAKSIDSRSSNFSDRNLHHLVPQLHDSNFKGPNHKVYHDMVKDRVACSVAYLEDIETACDQVDNVIRDIYKYSKPGYIFVPADFADMSVTCDNLVNVPRISQQDCIVYPSENQLSDIINKITSWIYSSKTPAILGDVLTDRYGVSNFLNKLICKTGIWNFSTVMGKSVIDESNPTYMGQYNGKEGLKQVYEHFELCDLVLHFGVDINEINNGHYTFTYKPNAKIIQFHPNYIRLVDTRQGNEQMFKGINFAPILKELYKRIDVSKLSLQYDSNVTQYTNETMRLEDPTNGQSSIITQVHLQKTMPKFLNPGDVVVCETGSFQFSVRDFAFPSQLKYISQGFFLSIGMALPAALGVGIAMQDHSNAHINGGNVKEDYKPRLILFEGDGAAQMTIQELSTILKCNIPLEVIIWNNNGYTIERAIMGPTRSYNDVMSWKWTKLFEAFGDFDGKYTNSTLIQCPSKLALKLEELKNSNKRSGIELLEVKLGELDFPEQLKCMVEAAALKRNKK
modifications: CDS (1)..(1908)
notes: 2-keto-acid decarboxylase Aro10 from S. cerevisiae
B4: CimA1: CimA variant with three amino acid substitutions (Ile47Val, Lys435Asn, Val441Ala) (protein, UniProt Q58787 1-491, looked up, variant I47V K435N V441A)
(R)-citramalate synthase CimA: MMVRIFDTTLRDGEQTPGVSLTPNDKLEIAKKLDELGVDVIEAGSAVTSKGEREGIKLITKEGLNAEICSFVRALPVDIDAALECDVDSVHLVVPTSPIHMKYKLRKTEDEVLETALKAVEYAKEHGLIVELSAEDATRSDVNFLIKLFNEGEKVGADRVCVCDTVGVLTPQKSQELFKKITENVNLPVSVHCHNDFGMATANTCSAVLGGAVQCHVTVNGIGERAGNASLEEVVAALKILYGYDTKIKMEKLYEVSRIVSRLMKLPVPPNKAIVGDNAFAHEAGIHVDGLIKNTETYEPIKPEMVGNRRRIILGKHSGRKALKYKLDLMGINVSDEQLNKIYERVKEFGDLGKYISDADLLAIVREVTGKLVEEKIKLDELTVVSGNKITPIASVKLHYKGEDITLIETAYGVGPVDAAINAVRKAISGVADINLVEYRAEAIGGGTDALIEVVVKLRKGTEIVEVRKSDADIIRASVDAVMEGINMLLN

Assays:
[1] = system: E. coli culture expressing kivd; experiment: Alcohol productions with the supply of 2-keto acids; assay type: cell-based; details: 2-keto acid added to E. coli culture expressing kivd
Excerpt: The addition of various 2-keto acids (see Table 13) to the E. coli culture expressing kivd confirmed the specific production of the corresponding alcohols by 2- to 23-fold.

[2] = system: endogenous 2-keto acids in E. coli; experiment: Alcohol productions with KDC and ADH in E. coli; assay type: cell-based; details: KDC over-produced with Adh2 in E. coli; minimal media with 0.2 M glucose
Excerpt: An enzyme in this alcohol production strategy is KDC, which is common in plants, yeasts and fungi but less so in bacteria. The aldehydes produced can then be converted to alcohols by an Adh, which is commonly found in many organisms. Some of the KDCs have broad-substrate ranges, while others are more specific. To test the capability of the endogenous 2-keto acids as a substrate for KDC in E. coli, five KDCs including Pdc6, Aro10, Thi3, from S. cerevisiae, Kivd from Lactococcus lactis, and Pdc from C. acetobutylycum were over-produced with alcohol dehydrogenase 2 (Adh2) of S. cerevisiae. E. coli cultures expressing these foreign genes were grown in a minimal media with 0.2 M glucose.

KS145 = experiment: 1-Propanol and 1-butanol production with the selected CimA mutants (citramalate pathway); assay type: cell-based, E. coli; details: 30° C. for 40 h
Protocol: Medium and cultivation for 1-propanol and 1-butanol production. M9 medium containing 36 g/L glucose, 5 g/L yeast extract, 100 μg/ml ampicillin, 30 μg/ml kanamycin and 1000th dilution of Trace Metal Mix A5 (2.86 g H3BO3, 1.81 g MnCl2.4H2O, 0.222 g ZnSO4.7H2O, 0.39 g Na2MoO4.2H2O, 0.079 g CuSO4.5H2O, 49.4 mg Co(NO3)2.6H2O per liter water) was used for cell growth. Preculture in test tubes containing 3 ml of medium was performed at 37° C. overnight on a rotary shaker (250 rpm). Overnight culture was diluted 1:100 into 20 ml of fresh medium in a 250 ml screw cap conical flask. Cells were grown at 37° C. for 3 hr, followed by adding 0.1 mM IPTG. Cultivation was performed at 30° C. on a rotary shaker (250 rpm). Gas chromatography-flame ionization detector and high-performance liquid chromatography analyses were performed.
The citramalate pathway was then used to enhance the production of 1-propanol and 1-butanol (FIG. 13). An E. coli strain (KS145) auxotrophic for L-isoleucine, leucine, and valine (ΔilvI and ΔilvB). was transformed with pSA63 (or other plasmids containing variants of cimA) and pSA55 (PLlacO1::kivd-ADH2). The deletions of ilvI and ilvB (FIG. 13) were introduced for two reasons. First, the deletions eliminated the native substrate, 2-ketoisovalerate, for the leuABCD pathway, thus reducing the competitive substrate inhibition. Second, these deletions eliminated the production of 2-keto-3-methyl-valerate and 2-keto-4-methyl-pentanoate, which are competing substrates for Kivd. The strain expressing the wild-type cimA gene (KS145/pSA63/pSA55) produced 302 mg/liter 1-propanol and 18 mg/liter 1-butanol after 40 h (FIG. 60). KS145 with pSA55 only, where Kivd utilizes endogenous 2-keto acids, produced 40 mg/liter 1-propanol and 10 mg/liter 1-butanol under the same condition. KS145 without pSA55 and pSA63 produced neither 1-propanol nor 1-butanol (FIG. 60). Note that the yeast extract was added to the medium to boost the cell density.
1-Propanol and 1-butanol production was tested with the selected CimA variants in KS145 by replacing pSA63 with corresponding plasmids (Table 19) containing various cimA mutants. […] The production of 1-propanol and 1-butanol from the strain with CimA2 increased 3.9- and 4.3-fold, respectively, compared to the strain with the wild-type CimA.

[3] = KS145 with pSA55 and pSA63 (cimA-leuABCD) or its variations
[4] = KS145 with pSA55 and pSA63 variations

| Molecule | Product 3-methyl-1-butanol [1] | Product 2-phenylethanol [1] | Product 1-propanol [2] | Product 2-methyl-1-butanol [2] | Product 3-methyl-1-butanol [2] | Product isobutanol [2] | also measured |
| --- | --- | --- | --- | --- | --- | --- | --- |
| CCC(C)C(=O)C(=O)O (centres unmarked) [2-keto-3-methyl-valerate] | – | – | – | – | – | – | Product 2-methyl-1-butanol [1]: 5284 µM |
| CC(C)CC(=O)C(=O)O [2-keto-4-methyl-pentanoate] | 3756 µM | – | – | – | – | – | – |
| CC(C)C(=O)C(=O)O [2-keto-isovalerate] | – | 109 µM | – | – | – | – | Product isobutanol [1]: 10016 µM |
| CCCC(=O)C(=O)O [2-ketovalerate] | 52 µM | 66 µM | – | – | – | – | Product 1-butanol [1]: 3926 µM |
| O=C(O)C(=O)Cc1ccccc1 [phenylpyruvate] | 105 µM | 7269 µM | – | – | – | – | Product 1-butanol [1]: 23 µM; Product 1-propanol [1]: 8 µM; Product isobutanol [1]: 64 µM |
| B1 | – | – | 520 µM | 766 µM | 1495 µM | 5242 µM | Product 1-butanol [2]: 220 µM; Product 2-phenylethanol [2]: 324 µM |
| B2 | – | – | 125 µM | 56 µM | 92 µM | 260 µM | – |
| B3 | – | – | 290 µM | 652 µM | 1099 µM | 2094 µM | Product 1-butanol [2]: 95 µM; Product 2-phenylethanol [2]: 469 µM |
| B4 | – | – | – | – | – | – | Production of 1-Butanol (KS145; [3]): 22 mg/L; Production of 1-Propanol (KS145; [3]): 695 mg/L; 1-Butanol change (fold) relative to the strain containing wild-type CimA (KS145; [4]): 1.2 fold; 1-Propanol change (fold) relative to the strain containing wild-type CimA (KS145; [4]): 2.3 fold |
